Results from publication PMC11290490, “Structural insights into activation mechanisms on NADase of the bacterial DSR2 anti-phage defense system” (Science Advances, 2024).

B1: defense-associated sirtuin2 (DSR2) from Bacillus subtilis 29R (enzyme, UniProt P0DXN8 1-1005, looked up)
chain: MVKVDLESKRYGEKLKEVFLMLDNNVVECIKEITESSRNGKLVFFVGAGVSTLSDYPQWWRLVDKYHEELYGSPKKGNYSSDEYLRIPQIFYNVKGEMAFDGILKDFFQVDKPTNPIHDKILAMNPAHVITTNYDNLIDTACWKRGKYFSVISAEEDVANATSSRYLLKVHGDFRKGFKGENVVLKEDDYLNYDQNYPLISNLMKTIIATHTIVFIGYGLGDYNINMLLNWVRKLQKDSFHKPFFIRTDPSPIENETLIYYENKGLRIIDAASLIDSNEYDYLERYSAVMDLLIESQENKFITKDDEVIDYIYGKISPLFALQYIRKIDLKHVFEYDYHFEVNGTVVRHKNKGFGYMERFFELKESCDERSKLSKKQYERFNALFNFFEKNGVICMAKDAGTLNTSIEINSLAYHGKYDVMKKFIEEQSVSIEDDYKKAFFLACLGRWEESYDLYSNIILNSIDESNGCVYYLSQINRYRIYQSITQAVTQFNGLGLLTFGRHYKPFTDEFLARIEREMTNFNIDDLFNGMPFEFQKKYKILEFLSDNQFLYDDTVKLFELTNKVRSEMSEGSYSFGMSSDIVVLLRLYDNLRFLYENCLWSVSFHEFHQYIRNSMSLLIEKAEYERTRDIDELGFSFFGKKSGFFMEYYDFVNISRHFKIDDIKNLERSCSIDKIRFGEQEKIEEYLVGIAEEITKQFSANGMNVVFYTQFISEAKAALYFAKYVKLSEEGLGKIVKALLFYFPERDLDIGKRYVWLERLTKCNELPKSIISIIDDFLVLQAEKHIDQNYSEVSSNGLYSRDYGALIKHFEKNFISKRLSEITLCLTQDKQKQIDFLFKLLPLLSTNAKSHLLSFKSVENINDLMNGIRIGLIDEFTPEHEELIIEYLETRKVNYIVEKEKGIQTFSSNDYMSTFGIWYFLEEINNSKMEEFIGMDDQYDFFVDPENFDYKKFIPSWLKNYNDKLLGKIAGNKHMKHHVIEVLKERVKNSNDKRYLEILMNYFI
notes: DSR2 from Bacillus subtilis 29R, WP_029317421; SIR2 domain residues 1 to 297, MID 297 to 627, CTD 627 to 1005; Cloned into pET28a; tag not cleaved (purified directly by SEC); For MST the protein was fluorescently labelled with the Monolith Protein Labeling Kit RED-NHS second generation; also called DSR2^WT; His-tag DSR2; source: E. coli BL21(DE3), purified (Ni-NTA, size-exclusion gel filtration)
B2: DSR anti-defense 1 (DSAD1) from phage phi3T/SPbeta (natural protein)
chain: KDTGATHDLVYHSKINTFVWDVEFDIVLSDSKELNKCYFVKCFNPYRINGKCDFAVSSIDIFSEGKRLLIENEFNFKITKAVHVATSKDVTEIVLHLSERISSPFPIVKEVVYLD
notes: DSAD1 from phage phi3T/SPbeta, WP_004399562; source: E. coli BL21(DE3), purified (Ni-NTA, TEV cleavage, SEC); not shown: His-tag, N-terminal, cleaved; Trx-tag, N-terminal, cleaved
B3: monomeric tail tube protein (TTP) of phage SPR (natural protein)
chain: MKTVIQDTADVYFKRKSDGKLVFTAEAQTASFSQAISEEKLRGGIGNKPLYILKSEKEINLTVKNAFFDLEWLAMTQGETIQEETKVKVFDREHGLIVDDTNKVTLKGKPVSDVTFYNKKGLTYKIAVSTDGTYTIPTAFAAAKDKLTAVYQIEKVGRRLAIKASKFSERYEVEYRTIAYNPDTEEVYSDIYIQFPNVSPSGEFEMSLENGNALAPEIKFEALADTDTDEMAVVIEASRDENTAAPVEDTTGSTQSSDLGGTTE
notes: tail tube protein (TTP) from phage SPR, WP_010328117; residues 1 to 73 and 189 to 263 seen in the complex structure; also called Mono TTP; monomeric TTP; source: E. coli BL21(DE3), purified (Ni-NTA, TEV cleavage, SEC; monomeric fraction); not shown: His-tag, N-terminal, cleaved; Trx-tag, N-terminal, cleaved

Assays:
[1] = biological target: the molecule itself; assay: cryo-EM structure; purified DSR2 or its complex with DSAD1 or TTP (formed at a molar ratio of 1:3, on ice, purified by gel filtration), 1.0 mg/ml on Quantifoil grids
[2] = biological target: B1; assay: as above; settings: both partners purified
[3] = biological target: B1; assay: MST; DSR2 fluorescently labelled (RED-NHS), 100 nM, mixed with twofold dilutions of TTP or DSAD1; 10 mM phosphate-buffered saline, 0.05% Tween 20; 20 min at room temperature; Monolith NT.115; triplicate; settings: both partners purified

For B1, the “stoichiometry N” value [1] was 4.

With B2 the “stoichiometry N” value [2] was 0.5 DSAD1:DSR2 and the Kd [3] was 40.4 nM.

B3 was tested, and the Kd [3] was 655 nM.
